Drawing on patent US20140010832A1 (EPFL TTO, published 2014), this text covers Kd for 4 molecules.

B1: PlGF2 (ligand)
chain: PAVPPQQWALSAGNGSSEVEVVPFQEVWGRSYCRALERLVDVVSEYPSEVEHMFSPSCVSLLRCTGCCGDENLHCVPVETANVTMQLLKIRSGDRPSYVELTFSQHVRCECRPLREKMKPERRRPKRGKRRREKQRPTDCHLCGDAVPRR
notes: also called PIGF-2; placenta growth factor 2
B2: human PDGF-BB-PlGF2123-144 (ligand)
chain: SLGSLTIAEPAMIAECKTRTEVFEISRRLIDRTNANFLVWPPCVEVQRCSGCCNNRNVQCRPTQVQLRPVQVRKIEIVRKKPIFKKATVTLEDHLACKCETVAAARPVTRRRPKGRGKRRREKQRPTDCHL
B3: human VEGF-A121-PlGF2123-144 (ligand)
chain: APMAEGGGQNHHEVVKFMDVYQRSYCHPIETLVDIFQEYPDEIEYIFKPSCVPLMRCGGCCNDEGLECVPTEESNITMQIMRIKPHQGQHIGEMSFLQHNKCECRPKKDRARQERRRPKGRGKRRREKQRPTDCHLCDKPRR
B4: human BMP-2-PlGF2123-144* (ligand)
chain: QAKHKQRKRLKSSCKRHPLYVDFSDVGWNDWIVAPPGYHAFYCHGECPFPLADHLNSTNHAIVQTLVNSVNSKIPKACCVPTELSAISMLYLDENEKVVLKNYQDMVVEGCGCRRRPKGRGKRRREKQRPTDSHL
notes: Inserted at the C-terminus of BMP-2

For this assay, the target named is Collagen I. Briefly: ELISA; cytokine coated, ECM protein 0.02 to 320 nM, KD by non-linear fit.
Sequence of Collagen I (P02452 162-1218, chain 1 of 2): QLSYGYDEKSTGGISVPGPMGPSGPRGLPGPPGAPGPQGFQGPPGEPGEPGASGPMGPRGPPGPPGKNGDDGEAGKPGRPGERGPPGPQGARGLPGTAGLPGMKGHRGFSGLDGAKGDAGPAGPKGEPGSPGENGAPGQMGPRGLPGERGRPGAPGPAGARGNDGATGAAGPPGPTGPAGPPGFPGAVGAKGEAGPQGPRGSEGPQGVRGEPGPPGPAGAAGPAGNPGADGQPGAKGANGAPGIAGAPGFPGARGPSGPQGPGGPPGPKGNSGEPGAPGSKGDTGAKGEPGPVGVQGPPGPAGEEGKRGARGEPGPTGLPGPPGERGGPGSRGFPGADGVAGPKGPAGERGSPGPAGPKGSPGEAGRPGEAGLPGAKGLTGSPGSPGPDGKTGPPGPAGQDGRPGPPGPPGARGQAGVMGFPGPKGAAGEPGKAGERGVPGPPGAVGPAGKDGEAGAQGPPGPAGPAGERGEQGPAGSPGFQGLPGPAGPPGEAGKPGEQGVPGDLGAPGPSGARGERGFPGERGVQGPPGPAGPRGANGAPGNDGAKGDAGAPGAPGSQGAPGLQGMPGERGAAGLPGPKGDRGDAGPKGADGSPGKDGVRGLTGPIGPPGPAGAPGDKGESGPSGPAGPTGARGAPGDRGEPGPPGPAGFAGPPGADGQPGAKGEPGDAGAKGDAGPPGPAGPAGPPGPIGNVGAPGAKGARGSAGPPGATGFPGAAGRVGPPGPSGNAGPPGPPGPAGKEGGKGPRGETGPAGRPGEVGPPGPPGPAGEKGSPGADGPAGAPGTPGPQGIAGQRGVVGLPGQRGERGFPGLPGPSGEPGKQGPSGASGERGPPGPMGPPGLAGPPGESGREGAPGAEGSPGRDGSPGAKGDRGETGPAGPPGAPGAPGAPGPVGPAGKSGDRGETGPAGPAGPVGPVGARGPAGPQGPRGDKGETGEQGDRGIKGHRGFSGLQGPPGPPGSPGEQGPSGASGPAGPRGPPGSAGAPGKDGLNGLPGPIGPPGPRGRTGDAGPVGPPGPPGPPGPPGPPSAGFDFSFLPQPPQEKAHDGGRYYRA
Sequence of Collagen I (P08123 80-1119, chain 2 of 2, further chain): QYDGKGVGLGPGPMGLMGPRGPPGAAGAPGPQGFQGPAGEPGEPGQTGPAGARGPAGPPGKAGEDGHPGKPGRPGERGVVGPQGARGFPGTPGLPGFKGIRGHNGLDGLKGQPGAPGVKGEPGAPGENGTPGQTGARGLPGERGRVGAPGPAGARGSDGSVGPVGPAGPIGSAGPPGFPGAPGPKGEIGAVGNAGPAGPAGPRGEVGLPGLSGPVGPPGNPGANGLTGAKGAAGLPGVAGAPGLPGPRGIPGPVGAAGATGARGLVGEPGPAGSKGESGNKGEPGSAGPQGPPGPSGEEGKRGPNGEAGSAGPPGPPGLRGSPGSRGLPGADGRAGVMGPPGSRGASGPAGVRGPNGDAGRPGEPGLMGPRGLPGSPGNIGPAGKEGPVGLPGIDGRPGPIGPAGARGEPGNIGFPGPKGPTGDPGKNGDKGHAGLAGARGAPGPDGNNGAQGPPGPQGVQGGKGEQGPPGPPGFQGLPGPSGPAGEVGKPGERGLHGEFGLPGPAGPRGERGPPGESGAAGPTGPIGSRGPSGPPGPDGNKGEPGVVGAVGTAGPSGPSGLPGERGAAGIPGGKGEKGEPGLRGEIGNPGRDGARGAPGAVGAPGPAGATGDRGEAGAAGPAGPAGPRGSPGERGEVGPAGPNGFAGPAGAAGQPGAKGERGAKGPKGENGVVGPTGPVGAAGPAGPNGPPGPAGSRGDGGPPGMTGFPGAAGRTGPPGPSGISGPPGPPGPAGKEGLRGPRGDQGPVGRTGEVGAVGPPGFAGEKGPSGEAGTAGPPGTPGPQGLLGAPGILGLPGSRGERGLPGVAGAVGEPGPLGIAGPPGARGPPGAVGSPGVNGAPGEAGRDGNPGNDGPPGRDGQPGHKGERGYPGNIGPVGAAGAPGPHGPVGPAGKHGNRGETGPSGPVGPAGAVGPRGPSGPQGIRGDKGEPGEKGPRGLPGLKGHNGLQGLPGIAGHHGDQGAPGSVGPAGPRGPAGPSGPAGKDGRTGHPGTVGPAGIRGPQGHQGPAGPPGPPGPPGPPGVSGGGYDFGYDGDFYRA
The molecule B1 had a Kd of 126 nM.

B2: the Kd was found to be 96.3 nM. With B3 the figure was 124 nM; with B4, 102 nM.
